Laboratory results reported in patent publication US20100172907A1 (Hoffmann-La Roche, published 2010).
Positions count from the first letter of the chain named. Read-outs that look alike come from different tables or passages of the source. Groups on a side chain read outwards from the residue. No end group written: not given here. NSMP = not defined here

T1: BSA-conjugated Aβ heptapeptide AEFRHDC (C-terminal Cys coupled to NSMP-activated BSA)
T1 construct: also called Peptide 2-7
T1 peptide: AEFRHDC

T2: BSA-conjugated Aβ heptapeptide LVFFAEC (reading uncertain; also: BSA conjugate)
T2 construct: also called Peptide 17-22
T2 peptide: LVFFAEC([NSMP-BSA])

T3: BSA-conjugated Aβ heptapeptide VFFAEDC (C-terminal Cys coupled to NSMP-activated BSA)
T3 construct: also called Peptide 18-23
T3 peptide: VFFAEDC

T4: BSA-conjugated Aβ heptapeptide FFAEDVC (C-terminal Cys coupled to NSMP-activated BSA)
T4 construct: also called Peptide 19-24
T4 peptide: FFAEDVC

B1: MSR 3.4.H7 IgG1 (antibody, V domains shown)
VH: QVQLVESGGGLVQPGGSLRLSCAASGFTFSSYAMSWVRQAPGKGLEWVSVISETGKNIYYADSVKGRFTISRDNSKNTLYLQMNSLRAEDTAVYYCARLTHYARYYRYFDVWGQGTLVTVSS
VL: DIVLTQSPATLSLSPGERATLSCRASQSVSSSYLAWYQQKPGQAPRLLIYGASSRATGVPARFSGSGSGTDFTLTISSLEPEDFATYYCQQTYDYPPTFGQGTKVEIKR
notes: full-length human IgG1
B2: MS-R #7.11 IgG1 (antibody, V domains shown)
VH: QVELVESGGGLVQPGGSLRLSCAASGFTFSSYAMSWVRQAPGKGLEWVSAISGSGGSTYYADSVKGRFTISRDNSKNTLYLQMNSLRAEDTAVYYCARGKGNTHKPYGYVRYFDVWGQGTLVTVSS
VL: DIVLTQSPATLSLSPGERATLSCRASQSVSSSYLAWYQQKPGQAPRLLIYGASSRATGVPARFSGSGSGTDFTLTISSLEPEDFATYYCQQVYSPPHTFGQGTKVEIKR
notes: full-length human IgG1
B3: MS-R #7.12 IgG1 (antibody, V domains shown)
VH: B2 VH with A33G, A50N, G56S
VL: DIVLTQSPATLSLSPGERATLSCRASQYVSSPYLAWYQQKPGQAPRLLISGSSNRATGVPARFSGSGSGTDFTLTISSLEPEDFAVYYCLQLYNIPNTFGQGTKVEIKR
notes: full-length human IgG1
B4: MS-Roche #7.9 Fab (Fab, V domains shown)
VH: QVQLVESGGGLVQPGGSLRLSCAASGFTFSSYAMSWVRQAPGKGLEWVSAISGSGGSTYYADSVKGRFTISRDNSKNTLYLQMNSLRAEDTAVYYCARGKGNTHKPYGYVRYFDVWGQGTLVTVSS
VL: B2 VL with Q90L, V92I, S94N, P95M, H97I
notes: VL entry is that of the H-CDR2 derivative 7.9H7
B5: MS-R IgG1 7.9.H3 (antibody, V domains shown)
VH: B2 VH with S52N, G53Y, S54Q, G56N, S57R, T58K
VL: DIVLTQSPATLSLSPGERATLSCRASQSVSSSYLAWYQQKPGQAPRLLIYGASSRATGVPARFSGSGSGTDFTLTISSLEPEDFATYYCLQIYNMPITFGQGTKVEIK
notes: full-length human IgG1; also called 7.9H3 IgG
B6: MS-R IgG1 3.6.H5 × 3.6.L2 (antibody, V domains shown)
VH: ELVESGGGLVQPGGSLRLSCAASGFTFSSYAMSWVRQAPGKGLEWVSAISESGKTKYYADSVKGRFTISRDNSKNTLYLQMNSLRAEDTAVYYCARLTHYARYYRYFDVWGQGTLVTVSS
VL: B2 VL with S28F, V29L, S31R, S32Y, T86V, V92T, S94N, P95Y, H97P
notes: full-length human IgG1; VH entry starts at QLVESGG
B7: MS-R IgG1 8.2.H2 (antibody, V domains shown)
VH: QVELVESGGGLVQPGGSLRLSCAASGFTFSSYAMSWVRQAPGKGLEWVSAISRTGSKTYYADSVKGRFTISRDNSKNTLYLQMNSLRAEDTAVYYCARLLSRGYNGYYHKFDVWGQGTLVTVSS
VL: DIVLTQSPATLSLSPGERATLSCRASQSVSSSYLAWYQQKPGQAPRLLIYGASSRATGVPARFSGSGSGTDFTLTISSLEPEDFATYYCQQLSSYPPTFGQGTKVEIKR
notes: full-length human IgG1
B8: MS-Roche #8.2.H1 Fab (Fab, V domains shown)
VH: B7 VH with E3Q, R53I, S56R, K57R, T58K
VL: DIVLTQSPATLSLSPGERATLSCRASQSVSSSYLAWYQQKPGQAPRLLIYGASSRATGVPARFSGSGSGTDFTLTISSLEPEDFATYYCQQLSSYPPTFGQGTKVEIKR

Legend:
[1] = target: T1, BSA-conjugated Aβ heptapeptide AEFRHDC; experiment: ELISA
Protocol: (§1) 50 μl of NSMP activated BSA (6.7 mg/ml) was diluted with 50 μl of PBS, 0.1% sodium azide and 10 μl of peptide solution (1 mM in DMSO) was added. As negative control activated BSA was mock-treated without peptide addition. After 4 hrs at room temperature the reaction was stopped by addition of 10 μl of 10 mM Cystein. An aliquot of the conjugate reaction mixture was diluted 1:100 with 0.1M sodium bicarbonate buffer and immediately filled into the wells (100 μl) of ELISA plates (Nunc Immuno-Plate). After standing 16 hrs at 4° C. 100 μl blocking buffer (as above) was added to each well and incubated for another 30 minutes. The plates were washed with 2×300 μl/well TBST (as above) and filled with 100 μl antibody at 10 μg/ml or 2 μg/ml in blocking buffer. The plates were kept 16 hours at 4° C. and washed with 2×300 μl TBST. 100 μl/well HRP-conjugated anti-human Ig H+L (Pierce, dilution 1:1000 with blocking buffer) was added and incubated for 1 hour at ambient temperature. The plates were washed with 3×300 μl/well TBST. Colour development was started by addition of 100 μl tetra-methyl benzidine/hydrogen peroxide reagent.

[2] = target: T2, BSA-conjugated Aβ heptapeptide LVFFAEC; experiment: ELISA
Protocol: as §1

[3] = target: T3, BSA-conjugated Aβ heptapeptide VFFAEDC; experiment: ELISA
Protocol: as §1

[4] = target: T4, BSA-conjugated Aβ heptapeptide FFAEDVC; experiment: ELISA
Protocol: as §1

[5] = target: T5, human Aβ (1-40) peptide (human); experiment: SPR Scatchard, higher affinity (bivalent)
T5 construct: also called Aβ1-40 fibers
Protocol: (§2) Binders with fast kinetics were analyzed by fitting the concentration-dependent sensor responses at equilibrium (adsorption-isotherms). KD values were calculated from the Biacore sensograms based on the total Fab concentration as determined by a protein assay. […] Briefly, time-dependent protein binding to Aβ1-40 fibers immobilized on the Biacore chip was measured during the association phase under mass-limited conditions at different flow rates of the analyte solution.
(§3) KD values of IgG binding to Aβ1-40 and Aβ1-42 fibers were determined in the Biacore. Briefly, a kinetic model for the stepwise formation of a bivalent complex was used, and KD values were calculated by Scatchard type analysis of equilibrium binding. Due to the very slow association process at low antibody concentration (several hours to reach equilibrium) equilibrium binding data were obtained by extrapolation of the association curves to long time intervals. The on- and off rates for the formation of the monovalent and bivalent complex were determined via the curve fit procedure and used for the extrapolation. Based on these Req values a Scatchard analysis was performed and KD values for the formation of the monovalent and the bivalent complex were determined.

[6] = target: T6, Aβ (1-42) peptide (human); experiment: SPR Scatchard, higher affinity (bivalent)
T6 construct: also called Aβ1-42 fibers; Aβ4
Protocol: as §2, §3

[7] = target: T5, human Aβ (1-40) peptide; experiment: SPR, immobilized fibers
Protocol: (§4) Biacore2000 and Biacore3000 instruments were used for these measurements. Aβ1-40 and Aβ1-42 fibers were generated in vitro by incubation of synthetic peptides at a concentration of 200 μg/ml in 10 mM Na-acetate buffer (pH 4.0) for three days at 37° C. […] For binders with slow kinetics KD values were calculated by curve fitting of the time-dependent sensor responses, i.e. from the ratio of koff/kₒₙ. Binders with fast kinetics were analyzed by fitting the concentration-dependent sensor responses at equilibrium (adsorption-isotherms). KD values were calculated from the Biacore sensograms based on the total Fab concentration as determined by a protein assay. […] Briefly, time-dependent protein binding to Aβ1-40 fibers immobilized on the Biacore chip was measured during the association phase under mass-limited conditions at different flow rates of the analyte solution.

[8] = target: T6, Aβ (1-42) peptide; experiment: SPR, immobilized fibers
Protocol: as §4

[9] = target: T5, human Aβ (1-40) peptide; experiment: SPR, immobilized fibers; remark: listed apart in the source
Protocol: as §4

[10] = target: T6, Aβ (1-42) peptide; experiment: SPR, immobilized fibers; remark: listed apart in the source
Protocol: as §4

[11] = target: T1, BSA-conjugated Aβ heptapeptide AEFRHDC; experiment: ELISA
Protocol: as §1

[12] = target: T2, BSA-conjugated Aβ heptapeptide LVFFAEC; experiment: ELISA
Protocol: as §1

[13] = target: T3, BSA-conjugated Aβ heptapeptide VFFAEDC; experiment: ELISA
Protocol: as §1

[14] = target: T4, BSA-conjugated Aβ heptapeptide FFAEDVC; experiment: ELISA
Protocol: as §1

[15] = target: T5, human Aβ (1-40) peptide; experiment: SPR, immobilized fibers; remark: listed apart in the source
[16] = target: T5, human Aβ (1-40) peptide; experiment: SPR, immobilized fibers; remark: listed apart in the source
Protocol: as §4

[17] = target: T6, Aβ (1-42) peptide; experiment: SPR, immobilized fibers; remark: listed apart in the source
Protocol: as §4

[18] = target: T5, human Aβ (1-40) peptide; experiment: SPR, immobilized fibers, equilibrium responses
Protocol: as §4

[19] = target: T6, Aβ (1-42) peptide; experiment: SPR, immobilized fibers, equilibrium responses
Protocol: as §4

Binder | OD ratio 2-7/BSA [1] | OD ratio 17-22/BSA [2] | Peptide-ratio 17-22/2-7 [2] | OD ratio 18-23/BSA [3] | Peptide-ratio 18-23/2-7 [3] | OD ratio 19-24/BSA [4] | Peptide-ratio 19-24/2-7 [4] | Kd [5] | Kd [6] | further results
B1 | 22 | 3 | 0.14 | 16 | 0.73 | 15 | 0.68 | 0.1 to 0.3 nM | 0.1 to 0.3 nM | –
B2 | – | – | – | – | – | – | – | – | – | Kd [7]: 2.3 nM; Kd [8]: 5.7 nM; Kd [9]: 2.3 nM; Kd [10]: 5.7 nM
B3 | 19 | 11 | 0.58 | 13 | 0.68 | 11 | 0.58 | – | – | Kd [7]: 3.1 nM; Kd [8]: 13.7 nM; Kd [9]: 3.1 nM; Kd [10]: 13.7 nM
B4 | – | – | – | – | – | – | – | – | – | OD ratio 2-7/BSA [11]: 28; OD ratio 17-22/BSA [12]: 9; Peptide-ratio 17-22/2-7 [12]: 0.32; OD ratio 18-23/BSA [13]: 13; Peptide-ratio 18-23/2-7 [13]: 0.46; OD ratio 19-24/BSA [14]: 8; Peptide-ratio 19-24/2-7 [14]: 0.29; fold improvement of affinity over the MS-Roche-7 parental Fab [15]: > 35 fold; Kd [16]: 31 nM; Kd [17]: 93 nM
B5 | 13 | 6 | 0.46 | 8 | 0.62 | 6 | 0.46 | 0.1 to 0.5 nM | 0.1 to 0.4 nM | –
B6 | 11 | 7 | 0.64 | 9 | 0.82 | 8 | 0.73 | 0.2 to 1.03 nM | 0.2 to 0.95 nM | –
B7 | 18 | 10 | 0.56 | 15 | 0.83 | 14 | 0.78 | 0.16 to 1 nM | 0.12 to 0.92 nM | –
B8 | – | – | – | – | – | – | – | – | – | OD ratio 2-7/BSA [11]: 22; OD ratio 17-22/BSA [12]: 7; Peptide-ratio 17-22/2-7 [12]: 0.34; OD ratio 18-23/BSA [13]: 23; Peptide-ratio 18-23/2-7 [13]: 1.05; OD ratio 19-24/BSA [14]: 20; Peptide-ratio 19-24/2-7 [14]: 0.94; Kd [18]: 1.6 nM; Kd [19]: 2.1 nM
